In patent publication US12653899B2, “Multi-targeted, tunable, sustained delivery of payloads to charged avascular tissues” (Massachusetts Institute of Technology, priority 2019, dated 2026):

Key:
[1] = test system: human cartilage explants (knee); assay: Quantitative uptake of cationic S-GFPs into human knee cartilage explants; assay type: in vitro ADME; conditions: donor knee; PBS+1% BSA or BSF
From the text: Two human knee joint distal femurs were obtained through the Gift of Hope Organ and Tissue Donor Network (Itaska, IL). A Collins grade 0 normal knee was from a donor and a near-normal grade 1 from a person. (The Collins visual grading scale grades spans grades 0-4 [20], with grade 0=normal and grade 4=end stage osteoarthritis.) All procedures were approved by the Rush University Medical Center Institutional Review Board (ORA Number: 08082803IRB01-AM01) and the Committee on the Use of Humans as Experimental Subjects at MIT. […]
Experiments to quantify the uptake of GFPs into cartilage were started after the explants had been pre-equilibrated in culture medium for 48 h post-harvest. […] (Standard 96-well cell culture plates were not used because S-GFPs could stick to polystyrene even in the presence of BSA, leading to a loss of protein. In contrast, use of polypropylene with 1% BSA enabled complete recovery of fluorescence). […] At the same time, the fluorescence of the absorption bath was measured using a plate reader (Synergy H1, Biotek Instruments Inc.) (excitation: 485 nm, emission: 528 nm). […] At the end of the desorption in 10×PBS+1% BSA, cartilage explants were weighed and the fluorescence of the desorption bath was measured. […] The uptake ratio was calculated as the ratio of GFP concentration inside cartilage (mol/mg wet weight) to the final absorption bath concentration (mol/mL).

[2] = test system: bovine cartilage explants; assay: GFP penetration into bovine cartilage explants (confocal microscopy); assay type: in vitro ADME
Protocol: Bovine cartilage explants were incubated for either 24 h or 8 days (37° C., 5% CO2) in 1 μM solutions of the cationic S-GFPs dissolved in PBS+1% BSA. Similarly, explants were placed in 1 μM solutions of the neutral GFPs for either 18 h or 26 h. In a separate series of experiments, bovine cartilage explants were cultured in ultra-low attachment cell culture plates (Corning) for a period of 8 days in 1 μM solutions of cationic S-GFPs dissolved in low glucose (1 g/L) DMEM (with no phenol red) with 10% fetal bovine serum (FBS) supplemented with 2 mM Lglutamine, 100 U/mL penicillin, […] streptomycin, […] amphotericin, 10 mM HEPES buffer, 0.1 mM nonessential amino acids (NEAA) and 0.4 mM proline (37° C., 5% CO2). Media changes were performed every 48 h, and fresh cationic S-GFP were added with each media change. At the end of all such experiments, explants were sectioned longitudinally into […] slices and washed with PBS. Primary bovine chondrocytes were incubated for 24 h (37° C., 5% CO2) in 100 nM solutions of GFPs dissolved in serum-free medium having the same composition as that described in the bovine cartilage harvest section. At the end of 24 h, chondrocytes were washed three times with heparin dissolved in PBS (20 U/mL) to remove non-internalized GFPs, fixed with 4% paraformaldehyde, stained with DAPI and washed with PBS. […]

Substance | 24 h uptake ratio compared among cationic S-GFPs [1] | extent of penetration into cartilage explant ([2]; 24 h in PBS+1% BSA, 1 mm thick bovine explants) | localization within cartilage explant ([2]; by day 8 in PBS+1% BSA, bovine explants)
+36 GFP: engineered supercharged green fluorescent protein carrier with net positive charge +36, SEQ ID NO: 4 | significantly lower compared to the other two GFP variants | did not | localized primarily inside chondrocytes throughout the tissue thickness
+25 GFP: engineered supercharged green fluorescent protein carrier with net positive charge +25, SEQ ID NO: 3 | significantly lower compared to the other two GFP variants |  | 
